According to patent publication US20200181226A1 (UNUM THERAPEUTICS, published 2020):

Tests used:
[1] = target: T1, ACTR variant SEQ ID NO: 9; assay: apparent affinity; flow cytometry, rituximab titrated on ACTR-expressing T cells, anti-human Fc detection
T1 construct: also called ACTR T cells; ACTR-expressing T cells

[2] = target: T1, ACTR variant SEQ ID NO: 9; assay: flow cytometry titration of rituximab on T cells expressing ACTR variant SEQ ID NO: 9; bound rituximab detected with a fluorochrome-labeled anti-human Fc antibody
[3] = target: T1, ACTR variant SEQ ID NO: 9; assay: cell-based or functional assay

T1 sequence (chain, as listed by the source mutant limits assumed): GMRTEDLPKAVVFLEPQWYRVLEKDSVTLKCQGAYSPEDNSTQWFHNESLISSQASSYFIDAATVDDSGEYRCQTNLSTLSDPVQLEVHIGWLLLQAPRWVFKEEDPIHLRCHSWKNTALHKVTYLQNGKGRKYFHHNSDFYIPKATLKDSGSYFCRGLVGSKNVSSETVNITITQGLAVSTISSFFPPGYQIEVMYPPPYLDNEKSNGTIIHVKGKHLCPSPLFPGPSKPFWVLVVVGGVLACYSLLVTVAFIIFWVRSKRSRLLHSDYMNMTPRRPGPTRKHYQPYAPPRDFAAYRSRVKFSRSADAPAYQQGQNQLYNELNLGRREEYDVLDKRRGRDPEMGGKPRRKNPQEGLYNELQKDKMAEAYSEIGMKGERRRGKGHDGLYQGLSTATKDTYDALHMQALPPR

B1: rituximab (antibody, V domains shown)
VH: QVQLQQPGAELVKPGASVKMSCKASGYTFTSYNMHWVKQTPGRGLEWIGAIYPGNGDTSYNQKFKGKATLTADKSSSTAYMQLSSLTSEDSAVYYCARSTYYGGDWYFNVWGAGTTVTVSA
VL: QIVLSQSPAILSASPGEKVTMTCRASSSVSYIHWFQQKPGSSPKPWIYATSNLASGVPVRFSGSGSGTSYSLTISRVEAEDAATYYCQQWTSNPPTFGGGTKLEIK
- Kd [1]: 689 nM
- EC50 (read off the curve) [2]: ~700 nM
- EC50 (µg/mL) of cytotoxicity, Raji Target Cells + Rituximab [3]: 0.07 µg/mL
